Assay results published in patent US20070015260A1, “Synthesis of synthons for the manufacture of bioactive compounds” (DIVERSA CORPORATION, priority 2002, published 2007).
Numbering of substitutions follows the chain as printed. Names may count otherwise. “Also recorded” adds a separate entry of the source.

B1: S238D: DERA variant, phosphate binding pocket residue Ser238 replaced with Asp (protein, UniProt P0A6L0 1-259, looked up, variant S238D)
Deoxyribose-phosphate aldolase: MTDLKASSLRALKLMDLTTLNDDDTDEKVIALCHQAKTPVGNTAAICIYPRFIPIARKTLKEQGTPEIRIATVTNFPHGNDDIDIALAETRAAIAYGADEVDVVFPYRALMAGNEQVGFDLVKACKEACAAANVLLKVIIETGELKDEALIRKASEISIKAGADFIKTSTGKVAVNATPESARIMMEVIRDMGVEKTVGFKPAGGVRTAEDAQKYLAIADELFGADWADARHYRFGADSLLASLLKALGHGDGKSASSY
B2: K172E: DERA variant, basic phosphate binding pocket residue Lys172 mutated to Glu (protein, UniProt P0A6L0 1-259, looked up, variant K172E)
Deoxyribose-phosphate aldolase: B1 Deoxyribose-phosphate aldolase with K172E, D238S
B3: G205E: DERA variant, neutral phosphate binding pocket residue Gly205 replaced with Glu (protein, UniProt P0A6L0 1-259, looked up, variant G205E)
Deoxyribose-phosphate aldolase: B1 Deoxyribose-phosphate aldolase with G205E, D238S
B4: R207E: DERA variant, basic phosphate binding pocket residue Arg207 mutated to Glu (protein, UniProt P0A6L0 1-259, looked up, variant R207E)
Deoxyribose-phosphate aldolase: B1 Deoxyribose-phosphate aldolase with R207E, D238S

Columns and labels:
[1] = tested on: E. coli SELECT (Δace, adhC, DE3) cells; assay: In vivo selection: growth of E. coli SELECT with supplementation substrates; format: cell-based; details: for toxicity of supplementation substrate to SELECT cells: together with sodium acetate
Description: SELECT was transformed with the DERA expressing plasmid, pET30a WT DERA, and growth conditions were then optimized for the expression of soluble active DERA enzyme. Selection conditions were further optimized using DERA's natural substrate DRP as a supplementation substrate and FIG. 6 illustrates that viable selection conditions are achieved. In the absence of 2-carbon supplementation, neither SELECT cells transformed with a plasmid which expresses WT DERA nor those transformed with a nonexpressing plasmid (−) grow. By contrast, both grow in the presence of sodium acetate supplementation. […] Proof of principle for this selection system arises from the fact that only E. coli SELECT cells transformed with plasmid that expresses WT DERA grow when DRP is used as the supplementation substrate. Furthermore, that the endogenous genomic E. coli DERA is not expressed at a sufficiently high level to affect the use of DRP as a 2-carbon source by virtue of its metabolism to acetaldehyde and D-glyceraldehyde-3-phosphate was established. […] A novel activity-based selection system is thus established and can be used to select for a DERA variant which can catalyze the retro-aldol reaction of DR and other nonphosphorylated substrates. Work is in progress to identify novel DERA variants for this purpose.
Plasmids were transformed into electrocompetent SELECT cells and subjected to 1 h outgrowth at 37° C. in 1 mL SOC medium supplemented with 0.1% sodium acetate. The cells were then collected by centrifugation at 4° C., 3000 rpm for 10 min. The supernatant was discarded and the pellet gently resuspended M9 0.2% glucose. This was repeated twice. The cells were then diluted to OD600=0.001 in M9 0.2% glucose, 0.01 mM IPTG, 10 μg/mL kanamycin. The appropriation supplementation substrate (sodium acetate, D-2-deoxyribose-phosphate or D-2-deoxyribose) was then added at 0.1% w/w concentration. After an appropriate selection time at 37° C., typically 24-72 h, the cells were harvested by centrifugation and their amplified plasmids isolated.

[2] = Sequential asymmetric aldol reaction with azidoaldehyde acceptor; format: biochemical; details: 3-azidopropinaldehyde acceptor, two molecules of acetaldehyde as donor
[3] = DERA addition (aldol) assay; format: biochemical; details: spectrophotometric coupled-assay of substrate consumption and TLC of product formation
Procedure: DERA enzyme activity was assayed in the aldol synthesis direction by determining the concentration of acetaldehyde remaining by a coupled endpoint assay with yeast alcohol dehydrogenase (YADH, EC 1.1.1.1). 200 mM acetaldehyde, which had been freshly distilled under anerobic conditions, 200 mM (±)-glyceraldehyde and 0.2 mg/mL DERA in 50 mM triethanolamine, pH 7.5 buffer which had been deoxygenated with N2, were incubated under an N2 atmosphere at 22° C. At various time points, 50 μL aliquots were withdrawn and quenched into 15 μL of 60% perchloric acid. After a 5 min incubation on ice, 890 μL 1 M triethanolamine, pH 7.5 buffer and 45 μL 4 N NaOH were added to neutralize the solution. 20 μL of this solution was then assayed for remaining acetaldehyde. The amount of acetaldehyde remaining was equated to moles NADH consumed, as determined in triethanolamine pH 7.5 buffer containing 0.3 mM NADH, 20 μL the above quenched reaction aliquot and 0.05 mg/mL YADH. DR product formation was also confirmed by silica gel TLC with ethylacetate running solvent and p-anisaldehyde developing stain. Rf: glyceraldehyde=0.04 (stains brown) Rf:2-deoxyribose=0.1 (stains blue).

[4] = DERA cleavage (retroaldol) coupled assay, natural substrate DRP; format: biochemical; details: for Km / kcat: retro-aldol, pH 7.5, 25° C.; for activity / kcat/KM with the natural substrate DRP, in words: compared to WT
Procedure: (§1) Enzyme activity was monitored by the standard coupled assay using α-Glycerophosphate Dehydrogenase (α-GPD, EC 1.1.18), and Triosephosphate Isomerase (TPI, EC 5.3.1.1). Enzyme activity was assayed in the retro-aldol, decomposition direction with 0.01-4 mM D-2-deoxyribose-5-phosphate (DRP) or 5 to 200 mM D-2-deoxyribose in 50 mM triethanolamine hydrochloride pH 7.5 buffer using a GPD/TPI (1.6 U/mL Sigma G-1881) coupled enzyme system at 25° C. in the presence of 0.3 mM NADH by observing the rate of decrease of NADH concentration as monitored at 340 nm, ε=6220 M^−cm^−1.

[5] = DERA cleavage (retroaldol) coupled assay, unnatural substrate DR; format: biochemical; details: for ratio of specificity constants {kcat/KM (DR)}/{kcat/KM (DRP)}: DR compared to DRP, read; for activity / specificity with DR, in words: compared to WT; for Km / kcat: retro-aldol, pH 7.5, 25° C.
Procedure: as §1

[6] = DERA catalysis with 2-methyl-3-hydroxypropinaldehyde as acceptor; format: biochemical; details: L-2-methyl derivative as substrate

| Molecule | toxicity of supplementation substrate to SELECT cells [1] | acceptance of the azidoaldehyde as substrate [2] | growth of SELECT cells transformed with expressing plasmid ([1]; DRP as the supplementation substrate) | relative activity of the DERA variants in the aldol direction [3] | Km [4] | kcat [4] | ratio of specificity constants {kcat/KM (DR)}/{kcat/KM (DRP)} [5] | activity / specificity with DR, in words ([5]; substrate DR) | Km ([5]; substrate DR) | kcat ([5]; substrate DR) | improvement in kcat/KM compared to that of the wild type [6] | activity / kcat/KM with the natural substrate DRP, in words [4] | improvement in kcat/KM compared to WT-DERA ([5]; substrate DR) | decrease in kcat/KM ([5]; substrate DR) |
| --- | --- | --- | --- | --- | --- | --- | --- | --- | --- | --- | --- | --- | --- | --- |
| O=CC[C@@H](O)[C@H](O)COP(=O)(O)O [DRP, D-2-deoxyribose-5-phosphate] | neither of these supplementation substrates nor their metabolic products are toxic to the cells | – | – | – | – | – | – | – | – | – | – | – | – | – |
| O=CC[C@@H](O)[C@H](O)CO [DR, D-2-deoxyribose] | neither of these supplementation substrates nor their metabolic products are toxic to the cells | – | – | – | – | – | – | – | – | – | – | – | – | – |
| WT: wild-type E. coli 2-deoxyribose-5-phosphate aldolase (DERA, EC 4.1.2.4) | – | not a substrate; also recorded: inactive | grow | S238˜DS239W>WT>R207E>K172E>G205E | 0.64 ± 0.01 mM | 68 ± 1 s⁻¹ | 1.9 × 10^−5 | cannot accept the unnatural substrate DR efficiently | 57 ± 7 mM | 0.107 ± 0.005 s⁻¹ | – | – | – | – |
| B1 | – | catalyzes a novel sequential aldol reaction; also recorded: accepts 3-azidopropionaldehyde as a new substrate | – | S238˜DS239W>WT>R207E>K172E>G205E | 61 ± 11 mM | 0.58 ± 0.05 s⁻¹ | 0.13 | – | 39 ± 6 mM | 0.21 ± 0.01 s⁻¹ | 5 fold | substantially decreased | 2.5 fold | – |
| B2 | – | – | – | S238˜DS239W>WT>R207E>K172E>G205E | – | – | 0.27 | – | 63 ± 22 mM | 0.022 ± 0.02 s⁻¹ | – | – | – | 5 fold |
| B3 | – | – | – | S238˜DS239W>WT>R207E>K172E>G205E | – | – | 3.1 × 10^−3 | virtually inactive | – | – | – | virtually inactive | – | – |
| B4 | – | – | – | S238˜DS239W>WT>R207E>K172E>G205E | – | – | 2.2 | virtually unchanged | 33 ± 3 mM | 0.064 ± 0.001 s⁻¹ | – | – | – | – |
